From US20250320297A1 (SHANGHAI HENLIUS BIOTECH, published 2025)

Legend:
Assay in all cases: cell-based or functional assay
[1] = molecular target: T1, human PDL1 stably expressed on CHO cells (human, UniProt Q9NZQ7 19-290)
[2] = molecular target: T1, human PDL1 stably expressed on CHO cells; remark: listed apart in the source
[3] = molecular target: T1, human PDL1 stably expressed on CHO cells; remark: listed apart in the source
[4] = molecular target: T1, human PDL1 stably expressed on CHO cells; remark: listed apart in the source

T1 sequence (Q9NZQ7 19-290 limits assumed): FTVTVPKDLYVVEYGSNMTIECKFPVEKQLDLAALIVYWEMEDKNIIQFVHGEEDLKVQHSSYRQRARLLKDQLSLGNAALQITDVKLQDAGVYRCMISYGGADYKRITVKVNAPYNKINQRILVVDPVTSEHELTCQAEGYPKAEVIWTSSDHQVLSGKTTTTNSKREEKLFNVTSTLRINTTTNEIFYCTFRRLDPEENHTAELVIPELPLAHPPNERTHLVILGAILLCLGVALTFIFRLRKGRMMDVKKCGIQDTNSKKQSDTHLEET

EC50 (read off the curve); luminescence (RLU) of the NFAT reporter, PDL1 Blockade assay (CHO-PDL1) [top panel] [1] [nM] | EC50 (read off the curve); luminescence (RLU) of the NFAT reporter, PDL1 Blockade assay (CHO-PDL1) [middle panel] [1] [nM] | Binder | further results
– | ~2 | 5D8 VHH-Fc (antibody, human IgG1, V domains shown) VH: QVQLVESGGGVVQPGRSLRLSCAASGGPFMSYAMGWFRQAPGKEREFVAAIRWSGQSTFYADSVKGRFTISRDNSKNTLYLQMNSLRAEDTAVYYCAAAQTIVTVPSNYEFDYWGQGTQVTVSS | –
– | ~2 | 5G10 VHH-Fc (antibody, human IgG1, V domains shown) VH: QVQLVESGGGVVQPGRSLRLSCAASGGPFMSYAMGWFRQAPGKEREFVAAIRWSGASTFYADSVKGRFTISRDNSKNTLYLQMNSLRAEDTAVYYCAAAQTIVTVPENYEFDYWGQGTQVTVSS | –
– | ~1 | 10A4 VHH-Fc (chimeric bivalent antibody) (antibody, human IgG1, V domains shown) VH: QVKLEESGGGLVMAGGSLRLSCAASGGPFMSYAMGWFRQAPGKEREFVAAIRWNGISTFYADSVKGRFTVSRDNGKNMAFLQMNSLKPEDTAVYYCAAAQTIVTVPENYEYHYWGQGTQVTVSS | EC50; NFAT luciferase reporter (RLU), CHO cells with human PDL1 co-incubated with Jurkat cells with human PD1 and NFAT reporter, blocking of PDL1/PD1 [4]: 0.242 nM; EC50; NFAT luciferase reporter (RLU), whole cell PDL1/PD1 blocking assay; printed as 10A4 Parental [3]: 3.79 nM

More lines, now with the values behind:

Binder | EC50 (read off the curve); luminescence (RLU) of the NFAT reporter, PDL1 Blockade assay (CHO-PDL1) [top panel] [1] [nM] | EC50 (read off the curve); luminescence (RLU) of the NFAT reporter, PDL1 Blockade assay (CHO-PDL1) [middle panel] [1] [nM] | further results
2F9 VHH-Fc (antibody, human IgG1, V domains shown) VH: QVQLVESGGGVVQPGRSLRLSCAASGGPFMSYAMGWFRQAPGKEREFVAAIRWSGISTFYADSVKGRFTISRDNSKNTLYLQMNSLRAEDTAVYYCAAAQTIVTVPENYEFDYWGQGTQVTVSS | ~2 | – | –
1F6 VHH-Fc (antibody, human IgG1, V domains shown) VH: QVQLVESGGGVVQPGRSLRLSCAASGGPFMSYAMGWFRQAPGKEREFVAAIRWSGKSTFYADSVKGRFTISRDNSKNTLYLQMNSLRAEDTAVYYCAAAQTIVTVPESYEFDYWGQGTQVTVSS | ~2 | – | –
Humanized 10A4 GLEF-N2S VHH-Fc (antibody, human IgG1, V domains shown) VH: EVQLVESGGGLVQPGGSLRLSCAASGGPFMSYAMGWVRQAPGKGLEFVAAIRWSGISTFYADSVKGRFTISRDNSKNTLYLQMNSLRAEDTAVYYCAAAQTIVTVPENYEYHYWGQGTQVTVSS | – | – | EC50; NFAT luciferase reporter (RLU), whole cell PDL1/PD1 blocking assay; printed as 10A4 GLEF-N2S [2]: 0.824 nM; EC50; NFAT luciferase reporter (RLU), whole cell PDL1/PD1 blocking assay [3]: 7.37 nM; EC50 (read off the curve); luminescence (RLU) of the NFAT reporter, PDL1 Blockade assay (CHO-PDL1) [bottom panel] [1]: ~2 nM
3D5 VHH-Fc (antibody, human IgG1, V domains shown) VH: QVQLVESGGGVVQPGRSLRLSCAASGGPFMSYAMGWFRQAPGKEREFVAAIRWSGHSTFYADSVKGRFTISRDNSKNTLYLQMNSLRAEDTAVYYCAAAQTISTVPENYEFDYWGQGTQVTVSS | – | ~1 | –
1H2 VHH-Fc (antibody, human IgG1, V domains shown) VH: QVQLVESGGGVVQPGRSLRLSCAASGGPFMSYAMGWFRQAPGKEREFVAAIRWSGLSTFYADSVKGRFTISRDNSKNTLYLQMNSLRAEDTAVYYCAAAPTIVTVPENYEFDYWGQGTQVTVSS | ~2 | – | –
Humanized 10A4 GLEF VHH-Fc (antibody, human IgG1, V domains shown) VH: EVQLVESGGGLVQPGGSLRLSCAASGGPFMSYAMGWVRQAPGKGLEFVAAIRWNGISTFYADSVKGRFTISRDNSKNTLYLQMNSLRAEDTAVYYCAAAQTIVTVPENYEYHYWGQGTQVTVSS | – | – | EC50; NFAT luciferase reporter (RLU), whole cell PDL1/PD1 blocking assay [3]: 8.3 nM
1G12 VHH-Fc (antibody, human IgG1, V domains shown) VH: QVQLVESGGGVVQPGRSLRLSCAASGGPFMSYAMGWFRQAPGKEREFVAAIRWSGLSTFYADSVKGRFTISRDNSKNTLYLQMNSLRAEDTAVYYCAAAQTIVTVPENYNFDYWGQGTQVTVSS | – | ~1 | –
1E4 VHH-Fc (antibody, human IgG1, V domains shown) VH: QVQLVESGGGVVQPGRSLRLSCAASGGPFMSYAMGWFRQAPGKEREFVAAIRWNGISTFYADSVKGRFTISRDNSKNTLYLQMNSLRAEDTAVYYCAAAQTIVTVPENYEFDYWGQGTQVTVSS | ~2 | – | –
